The values below are quoted from earlier work in PMC7990104.

Where two headings read alike, the source gives them in different places.

The target of data set [1] is PYL3 (Arabidopsis thaliana) (UniProt Q9SSM7).
For data set [2] the target is unchanged. The source holds these as a separate data set.

Take PYL3 (from UniProt Q9SSM7): the results for the Kd in data set [1] and in data set [2] were 7.76 µM and 52 µM, respectively.
